Measurements: the RNAGym collection of RNA variant scans (doi:10.7554/elife.80360)

B1: Hammerhead Ribozyme (parent)
chain: ACCGGAUGUGCUUUCCGGUCUGAUGAGUCCGUGAGGACGAAACAG

Variants of: B1
Experiment: self-cleavage, relative activity (ratio to wild type); higher = more cleavage; co-transcriptional

Row | Variant | self-cleavage
1 | G4C A26U | 0.427
2 | G4C A26C | 0.289
3 | G4C A26G | 0.276
4 | G4A G35A | 0.386
5 | G4A G35U | 0.382
6 | G4A G35C | 0.391
7 | G4A A26U | 0.472
8 | G4A A26C | 0.302
9 | G4A A26G | 0.35
10 | G4C A23C | 0.299
11 | G4C A23U | 0.314
12 | G4C A23G | 0.225
13 | G4A C43A | 0.313
14 | G4A C43U | 0.271
15 | G4A C43G | 0.29
16 | C3U U28G | 0.505
17 | C3U U28A | 0.448
18 | C3U U28C | 0.854
19 | G4C A6U | 0.281
20 | G4C A6C | 0.251
21 | G4C A6G | 0.358
22 | G4A G27U | 0.366
23 | G4A G27A | 0.332
24 | G4A G27C | 0.297

Row | Variant | self-cleavage
25 | G4A C15G | 0.419
26 | G4A C15A | 0.443
27 | G4A C15U | 0.532
28 | G4A C16A | 0.907
29 | G4A C16G | 0.977
30 | G4A C16U | 0.781
31 | G4A G18U | 0.323
32 | G4A G18C | 0.333
33 | G4A G18A | 0.372
34 | C3U U21G | 0.558
35 | C3U U21C | 0.731
36 | C3U U21A | 0.747
37 | G4A A44U | 0.435
38 | G4A A44C | 0.388
39 | G4A A44G | 0.84
40 | C3U U7C | 0.743
41 | C3U U7G | 1.25
42 | C3U U12A | 1.04
43 | C3U U12G | 0.843
44 | C3U U12C | 0.99
45 | C3U U14G | 0.78
46 | C3U U14C | 0.669
47 | C3U U14A | 0.71
48 | G4A G31A | 0.641

Row | Variant | self-cleavage
49 | G4A G31U | 0.678
50 | G4A G31C | 0.594
51 | G4A C30G | 0.368
52 | G4A C30A | 0.379
53 | G4A C30U | 0.526
54 | G4A G22C | 0.354
55 | G4A G22U | 0.302
56 | G4A G22A | 0.281
57 | G4A A37G | 0.391
58 | G4A A37C | 0.491
59 | G4A A37U | 0.378
60 | G4C A37C | 0.328
61 | G4A G10A | 0.866
62 | G4A G10U | 0.734
63 | G4A G10C | 0.414
64 | G4A G8U | 0.696
65 | G4A G8A | 0.555
66 | G4A G8C | 0.46
67 | G4A G5U | 0.398
68 | G4A G5C | 0.365
69 | G4A G5A | 0.54
70 | G4C A34C | 0.679
71 | G4C A34G | 0.596
72 | G4C A34U | 0.585

Row | Variant | self-cleavage
73 | G4A G39U | 0.26
74 | G4A G39C | 0.319
75 | G4A G39A | 0.353
76 | G4A U32A | 0.579
77 | G4A U32G | 0.436
78 | G4A U32C | 0.516
79 | G4A G33A | 0.55
80 | G4A G33U | 0.597
81 | G4A G33C | 0.549
82 | C3U U9A | 1.03
83 | C3U U9G | 0.657
84 | C3U U9C | 1.08
85 | G4A A41U | 0.382
86 | G4A A41C | 0.34
87 | G4A A41G | 0.287
88 | C3U U13G | 0.866
89 | C3U U13C | 1.33
90 | C3U U13A | 1.1
91 | G4A G36A | 0.367
92 | G4A G36U | 0.37
93 | G4A G36C | 0.343
94 | G4C | 0.784
95 | G4A | 0.602
96 | G4A U24C | 0.59

Row | Variant | self-cleavage
97 | G4A U24G | 0.546
98 | G4A U24A | 0.682
99 | C3U U32G | 0.452
100 | C3U U32C | 0.962
101 | C3U U32A | 0.95
102 | G4A G25U | 0.316
103 | G4A G25A | 0.313
104 | G4A G25C | 0.32
105 | G4A U13G | 0.616
106 | G4A U13C | 0.824
107 | G4A U13A | 1.01
108 | G4A A23G | 0.272
109 | G4A A23C | 0.337
110 | G4A A23U | 0.356
111 | G4A U7A | 0.538
112 | G4A U7C | 0.294
113 | G4A U7G | 0.335
114 | G4A A40U | 0.325
115 | G4A A40G | 0.379
116 | G4A A40C | 0.359
117 | G4A U19C | 0.276
118 | G4A U19G | 0.238
119 | G4A U19A | 0.353
120 | G4A U9C | 0.47

Row | Variant | self-cleavage
121 | G4A U9A | 0.458
122 | G4A U9G | 0.423
123 | G4A G45C | 0.393
124 | G4A G45A | 0.348
125 | G4A G45U | 0.418
126 | G4A A34G | 0.378
127 | G4A A34C | 0.35
128 | G4A A34U | 0.49
129 | G4A A6G | 0.355
130 | G4A A6C | 0.232
131 | G4A A6U | 0.377
132 | G4A G17U | 0.39
133 | G4A G17A | 0.337
134 | G4A G17C | 0.399
135 | G4A C20U | 0.358
136 | G4A C20G | 0.334
137 | G4A C20A | 0.402
138 | G4A C38U | 0.453
139 | G4A C38A | 0.373
140 | G4A C38G | 0.344
141 | G4A C29A | 0.374
142 | G4A C29U | 0.543
143 | G4A C29G | 0.357
144 | G4A A42U | 0.319

Row | Variant | self-cleavage
145 | G4A A42G | 0.341
146 | G4A A42C | 0.335
147 | C3U U24C | 0.956
148 | C3U U24A | 1.24
149 | C3U U24G | 0.945
150 | G4A C11U | 0.389
151 | G4A C11A | 0.62
152 | G4A C11G | 0.539
153 | G4A U28A | 0.364
154 | G4A U28G | 0.341
155 | G4A U28C | 0.306
156 | C3U U19C | 0.539
157 | C3U U19G | 0.38
158 | C3U U19A | 0.385
159 | G4A U12C | 0.305
160 | G4A U12A | 0.589
161 | G4A U12G | 0.541
162 | G4A U21A | 0.312
163 | G4A U21G | 0.374
164 | G4A U21C | 0.373
165 | G4A U14A | 0.49
166 | G4A U14C | 0.404
167 | G4A U14G | 0.542
